According to the DeepSol protein solubility set:

Test: soluble on expression in E. coli; label from the status in PepcDB or PDB records

Row | Sequence | soluble on expression in E. coli
1 | MNESRITRNNEAVYKPEELDILRLGLDTDLYPNVDWMDMLLKDGAWSNRINLNMSGGGTTARYFVSASYVKEDGMYNTDESLKDDYNTNAAYHRWNYRLNTDIDITKTTLLKVGVAGFLSKRNSPGLGDGDVWGELFGYNPIKTPVMYSNGYIPAIGSGNKTNPWVAATQTGFNENWTNNIETNISLEQNFDFITKGLKFVGRFGYDSNNQNTIRRLKWPEQWLAERARDPETGELRWKKISGSQNMKQESSSSGNRREFLDMMLNWDRSFGAHHPSATIKYTQDSYIQTQNLGEDLKTGINKRNQDLAGRVAYNWNYRYFIDFNFGYNGSENFAKGDRFGFFPAFSLAWNIAEEPFIKKHLKWMNMFKVRFSYGKVGNDNVGTRFPYLYTIADRYKNGDNEIIYGGYDWAQYPSSYSFGGLGFADVASNGITWEVAEKNDLGIDLALFNDKFTATIDYFDEKRTGIYMVRNYLPQIVGLNGHNPAANVGAVSSKGFDGHFSYKQRINDVNLTVRGNITYSKNEVLERDEENNVYAYQMQRGYRVDQCKGLIAEGLFKDYDDIRNSPTQSWGKVQPGDIKYRDVNGDGVINDGDQVAIGATSRPNLIYGLGASASWKGLDVNVHFQGAGKSTFFTYGKCVWAFTEGEWGNIFKGMLDNRWVDADTAETLGIPANENPNASYPRLSYQGDNASNNNYRNSTFWLKNGRYLRLKTIDVGYTLPKSIVNKMHFNNIRIFLVGTNLLTWSSFKTWDPEMGDPRGESYPLTKSITMGISVNL | not soluble
2 | SGAAAAEADRTLFVGNLETKVTEELLFELFHQAGPVIKVKIPKDKDGKPKQFAFVNFKHEVSVPYAMNLLNGIRLYGRPIKIQFRSGSSHAPQDVSLSYPQHHVGNSSPTSTSPSRYERTMDNMTSSAQIIQRSFSSPENFQRQAVMNSALRQMSYGGKFGSSPLDQSGFSPSVQSHSHSFNQSSSSQWRQGTPSSQRKVRMNSYPYLADRHYSREQRYTDHGSDHHYRGKRDDFFYEDRNHDDWSHDYDNRRDSSRDGKWRSSRH | soluble
3 | MGHHHHHHSHDKAIKETSILEEYSINWTQKLGAGISGPVRVCVKKSTQERFALKILLDRPKARNEVRLHMMCATHPNIVQIIEVFANSVQFPHESSPRARLLIVMEMMEGGELFHRISQHRHFTEKQASQVTKQIALALRHCHLLNIAHRDLKPENLLFKDNSLDAPVKLCDFGFAKIDQGDLMTPQFTPYYVAPQVLEAQRRHQKEKSGIIPTSPTPYTYNKSCDLWSLGVIIYVMLCGYPPFYSKHHSRTIPKDMRRKIMTGSFEFPEEEWSQISEMAKDVVRKLLKVKPERRLTIEGVLDHPWLNSTEALDNVLPSAQLMMDKAVVAGIQQAHAEQLANMRIQDLKVSLKPLHSVNNPILRKRKLLGTKPKDSVYIHDHENGAEDSNVALEKLRDVIAQCILPQAGENEDEKLNEVMQEAWKYNRECKLLRDTLQSFSWNGRGFTDKVDRLKLAEIVKQVIEEQT | soluble
4 | MGSDKIHHHHHHMKLSINKNTLESAVILCNAYVEKKDSSTITSHLFFHADEDKLLIKASDYEIGINYKIKKIRVESSGFATANAKSIADVIKSLNNEEVVLETIDNFLFVRQKSTKYKLPMFNHEDFPNFPNTEGKNQFDIDSSDLSRSLKKILPSIDTNNPKYSLNGAFLDIKTDKINFVGTDTKRLAIYTLEKANNQEFSFSIPKKAIMEMQKLFYEKIEIFYDQNMLIAKNENFEFFTKLINDKFPDYEKVIPKTFKQELSFSTEDFIDSLKKISVVTEKMRLHFNKDKIIFEGISLDNMEAKTELEIQTGVSEEFNLTIKIKHLLDFLTSIEEEKFTLSVNEPNSAFIVKSQGLSMIIMPMIL | not soluble
5 | FEKHGTYYEIFVRSFYDSDGDGIGDLKGIIEKLDYLNDGDPETIADLGVNGIWLMPIFKSPSYHGYDVTDYYKINPDYGTLEDFHKLVEAAHQRGIKVIIDLPINHTSERHPWFLKASRDKNSEYRDYYVWAGPDTDTKETKLDGGRVWHYSPTGMYYGYFWSGMPDLNYNNPEVQEKVIGIAKYWLKQGVDGFRLDGAMHIFPPAQYDKNFTWWEKFRQEIEEVKPVYLVGEVWDISETVAPYFKYGFDSTFNFKLAEAVIATAKAGFPFGFNKKAKHIYGVYDREVGFGNYIDAPFLTNHDQNRILDQLGQDRNKARVAASIYLTLPGNPFIYYGEEIGMRGQGPHEVIREPFQWYNGSGEGETYWEPAMYNDGFTSVEQEEKNLDSLLNHYRRLIHFRNENPVFYTGKIEIINGGLNVVAFRRYNDKRDLYVYHNLVNRPVKIKVASGNWTLLFNSGDKEITPVEDNNKLMYTIPAYTTIVLEKE | soluble
6 | MNPSVKIVVLSLPTATARRSQMSAMLGNTSLDWQYFDAHASLMCPNLHYDGAELRRHFGRNLSPPEIAVCSSHAAILQEFVDRNQADYILVLEDDVIFDTDFPLDQFCAFCASNGLEYVRLFGKHYAKAVHLGFFYDRSIVRFTTSPAGAQAYLMSRMAARRFLDSYQSIRATVDLAMDSFWITQLPIYSIFPYPIIERFSPTSIPMPPHTVEVRGLEHAIWQGARVVNKAKKILTNAKLRKSDESLRQRHWQFRQVGRVDVEQRRDPAAALEHHHHHH | soluble
7 | MRMRLMLLGGGNALGQALIRLGAEEDIGFLAPRPPQDGWDVASLTQLLDDTRPDALINLAYYFDWFQAETVSAARLTHQERSVERLAELCQHHNITLVQPSSYRVFDGSRATAYSEKDEPVPLGLRGQALWRIEQSVRATCPQHVLVRFGWLLDDSADGVLGRFLSRAKEPGELLLADDRRGNPTPVDDAARVIISIVKQLDCEAPLWGTYHYAGHEATTPLALGQAVLTEARLLHPLAIESPTAQAHAARPDAAEEPQHAVLACKKILHTFGIKPRAWRAGLPSLLDRYYRHV | not soluble
8 | MGSDKIHHHHHHMELRDLQIFKCVAHHKSITGAAKELNYVQSNVTARIKQLENELKTPLFNRHKKGVSLSPEGRKMIEYVNKILKDVEELEQVFLDTEIPSGILKIGTVETVRILPTIIASYYKKYPNVDLSLQAGLTEELIKKVMNHELDGAFISGPLKHSILEQYDVYTEKLTLVTSNKTFNIEDFSTTPILVFNQGCGYRSRLEQWLKDEGVLPNRMMEFNILETILNSVALGLGITVVPESAVMHLAVQGKVYCHPLPEKDSCISTIFIRHKDAYLTNSMRSLLKTIVEHKNMSMA | not soluble
9 | MRAMRLVEIGKPLKLEDIPIPKPKGSQVLIKIEAAGVCHSDVHMRQGRFGNLRIVEDLGVKLPVTLGHEIAGRIEEVGDEVVGYSKGDLVAVNPWEGEGNCYYCRIGEEHLCDSPRWLGINYDGAYAEYVLVPHYKYLYKLRRLSAVEAAPLTCSGVTTYRAVRKASLDPSKTLVVIGAGGGLGTMAIQIAKAVSGATIIGVDVREEALEAAKRAGADYVINASSQDPVSEIRRITQGKGADAVIDLNNSEKTLSIYPYVLAKQGKYVMVGLFGADLKYHAPLITLNEVQFIGSLVGNQSDFLGIMSLAEAGKVKPMVTKTMKLEEANEAIDNLENFKAVGRQVLVP | soluble
10 | MGSDKIHHHHHHMATEIIYMVKDWFEWHDLYKNEPKLQQRLQIVQEYISYSLNLPEPGLIRVVSVCAGDGRDLLGTLSNHPRAKDVYARLVELNPHLVERGQQTIESLGLTKQIEFINGDATLSSNYLGAVPADIVIVCGVFGNLADEAELNRLLANLSFLSKQGAFVIWTRGHSNGIPHSETVRKFFREYGFEEVNFKLTATGDMGVGIHRYLGESLAAPKEQQFFAFTGVPSKAR | not soluble
11 | LAKGLEDVYIDQTNICYIDGKEGKLYYRGYSVEELAELSTFEEVVYLLWWGKLPSLSELENFKKELAKSRGLPKEVIEIMEALPKNTHPMGALRTIISYLGNIDDSGDIPVTPEEVYRIGISVTAKIPTIVANWYRIKNGLEYVPPKEKLSHAANFLYMLHGEEPPKEWEKAMDVALILYAEHEINASTLAVMTVGSTLSDYYSAILAGIGALKGPIHGGAVEEAIKQFMEIGSPEKVEEWFFKALQQKRKIMGAGHRVYKTYDPRARIFKKYASKLGDKKLFEIAERLERLVEEYLSKKGISINVDYWSGLVFYGMKIPIELYTTIFAMGRIAGWTAHLAEYVSHNRIIRPRLQYVGEIGKKYLPIELRR | soluble
12 | MKSLSYKRIYKSQEYLATLGTIEYRSLFGSYSLTVDDTVFAMVSDGELYLRACEQSAQYCVKHPPVWLTYKKCGRSVTLNYYRVDESLWRNQLKLVRLSKYSLDAALKEKSTRNTRERLKDLPNMSFHLEAILGEVGRLAP | not soluble
13 | MEVMAQIVLAPHLAGRFDDPDHIRRCIQLYSYRIPANYRRLFDFLFNTEQDFPDCDEFSFFVSVRLNIPTKILNFSEEFGKCVSLHILRKLDVIPPFSKRSQLIILKEVESLKKSIRLCDHMEQCVVAAFQQLLEDEEACIQSVHRLMPVITRSLSQSALEDLINPMIELIQCETSVKLLDRRFLMHVSICYGTHTFLDLFLPPIVEACASMNCDRSVVAKESIMWLAKRYGPVICAKFISSNVLRIMASCYEAFEMVGLEQQPKAVFNVVLQGDETCSRIESLLSEIVLTYSVTFITVQFLPFCVDLIEQFHKRSSVQLEPGLVSVFRIVELSIRSMSDHQLMNYLEEFIIQKVCQLLHSITQKIGTENTRIYANQPFKLMFSTFSEIYETDEELRINLRKRPSENTLFEVPLWMVEDVVDKFAKEWGVPFLSSFCDDPAFLIPFVSNSSSSSSPPASIAHSPPSAFTAYSLGGMSSGNRLFSLSASSPVNSVNSLGGLSFCDSGSLSAVWCARVSAAVCGVDNYRFDHLSLCNYTGHQEKIRKLAAISNENSFVSASSDKTVKLWSIKPELDEIGCQWTYQKHTRPVHDITILADNSIASTDGVLHVWDPFRTTLLAQMEWDSKEGSGGNIMRVENVDRHILSAICSLHSTVKLFDSRVGGWTCELKVSPGPGLTRAITVRDKGNKMAVALSNGTLAILDARNGKINALAQTNSTHTVSVNWLSDTRLLVCDADECGIFLETNPRAHIVRKLQDPSIPKQW | not soluble
14 | MDLVFRPERYPFLTQDLPGVGGEIRVEPEDFQVEEVPAYLPKGEGEHLYLLLEKEGRTTREVLEFLRDEVGVPEKEIGVAGLKDKRAKTRQWFSIPRKYEDALCLLENLQGVRLLAADLHTNKLRTGHLKGNRFHILIRRPKGGVAEAEAVLKRLAEKGVPNYYGPQRFGLGGLNPVRGYKLVKEGKGRGSPWLKRFLIGSLQSLLFNDWVALRMALGLYDRVVPGDWAKKHATGGEFLVEDPGEAERALRLEISATGPLFGKKYPEAQGEARAIEDEVLARYGLKREEFRARRGARRPIRVPLAEWKVEEAPEGLWLSFFLPKGSYATSLLREVMKVEALDHLEAEPAPEDAEGL | soluble
15 | MSNYVIQADQQLLDALRAHYEGALSDRLPAGALFAVKRPDVVITAYRSGKVLFQGKAAEQEAAKWISGASASNETADHQPSALAAHQLGSLSAIGSDEVGTGDYFGPIVVAAAYVDRPHIAKIAALGVKDSKQLNDEAIKRIAPAIMETVPHAVTVLDNPQYNRWQRSGMPQTKMKALLHNRTLVKLVDAIAPAEPEAIIIDEFLKRDSYFRYLSDEDRIIRERVHCLPKAESVHVSVAAASIIARYVFLEEMEQLSRAVGLLLPKGAGAIVDEAAARIIRARGEEMLETCAKLHFANTKKALAIAKRRK | soluble
16 | MNYLFKNGRYMNEEGKIVATDLLVQDGKIAKVAENITADNAEVIDVNGKLIAPGLVDVHVHLREPGGEHKETIETGTLAAAKGGFTTICAMPNTRPVPDCREHMEDLQNRIKEKAHVNVLPYGAITVRQAGSEMTDFETLKELGAFAFTDDGVGVQDASMMLAAMKRAAKLNMAVVAHCEENTLINKGCVHEGKFSEKHGLNGIPSVCESVHIARDILLAEAADCHYHVCHVSTKGSVRVIRDAKRAGIKVTAEVTPHHLVLCEDDIPSADPNFKMNPPLRGKEDHEALIEGLLDGTIDMIATDHAPHTAEEKAQGIERAPFGITGFETAFPLLYTNLVKKGIITLEQLIQFLTEKPADTFGLEAGRLKEGRTADITIIDLEQEEEIDPTTFLSKGKNTPFAGWKCQGWPVMTIVGGKIAWQKESALV | not soluble
